T1: neutrophil elastase (Homo sapiens, UniProt P08246)
T1 sequence (P08246 30-267): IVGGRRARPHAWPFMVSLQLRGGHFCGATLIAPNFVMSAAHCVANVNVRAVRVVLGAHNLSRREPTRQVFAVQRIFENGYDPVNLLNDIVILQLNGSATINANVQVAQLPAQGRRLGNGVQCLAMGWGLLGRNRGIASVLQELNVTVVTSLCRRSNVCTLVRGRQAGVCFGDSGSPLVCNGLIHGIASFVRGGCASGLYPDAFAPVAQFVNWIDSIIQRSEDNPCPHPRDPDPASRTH

B1: AAT 1-1: murine α-1-antitrypsin protein corresponding to one of the Serpina1 genes (A-E) (protein, UniProt P07758 25-413, looked up)
Alpha-1-antitrypsin 1-1: EDVQETDTSQKDQSPASHEIATNLGDFAISLYRELVHQSNTSNIFFSPVSIATAFAMLSLGSKGDTHTQILEGLQFNLTQTSEADIHKSFQHLLQTLNRPDSELQLSTGNGLFVNNDLKLVEKFLEEAKNHYQAEVFSVNFAESEEAKKVINDFVEKGTQGKIAEAVKKLDQDTVFALANYILFKGKWKKPFDPENTEEAEFHVDESTTVKVPMMTLSGMLHVHHCSTLSSWVLLMDYAGNATAVFLLPDDGKMQHLEQTLSKELISKFLLNRRRRLAQIHFPRLSISGEYNLKTLMSPLGITRIFNNGADLSGITEENAPLKLSQAVHKAVLTIDETGTEAAAVTVLQMVPMSMPPILRFDHPFLFIIFEEHTQSPIFLGKVVDPTHK
B2: AAT 1-4: murine α-1-antitrypsin protein corresponding to one of the Serpina1 genes (A-E) (protein, UniProt Q00897 25-413, looked up)
Alpha-1-antitrypsin 1-4: EDVQETDTSQKDQSPASHEIATNLGDFALRLYRELVHQSNTSNIFFSPVSIATAFAMLSLGSKGDTHTQILEGLQFNLTQTSEADIHKSFQHLLQTLNRPDSELQLSTGNGLFVNNDLKLVEKFLEEAKNHYQAEVFSVNFAESEEAKKVINDFVEKGTQGKIVEAVKKLDQDTVFALANYILFKGKWKQPFDPENTEEAEFHVDESTTVKVPMMTLSGMLDVHHCSMLSSWVLLMDYAGNTTAVFLLPDDGKMQHLEQTLNKELISQFLLNRRRSDAQIHIPRLSISGNYNLKTLMSPLGITRIFNNGADLSGITEENAPLKLSKAVHKAVLTIDETGTEAAAATVLQVATYSMPPIVRFDHPFLFIIFEEHTQSPIFVGKVVDPTHK
B3: AAT 1-3: murine α-1-antitrypsin protein corresponding to one of the Serpina1 genes (A-E) (protein, UniProt Q00896 25-412, looked up)
Alpha-1-antitrypsin 1-3: EDVQETDTSQKDQSPASHEIATNLGDFAISLYRELVHQSNTSNIFFSPVSIATAFAMLSLGSKGDTHTQILEGLQFNLTQTSEADIHKSFQHLLQTLNRPDSELQLSTGNGLFVNNDLKLVEKFLEEAKNHYQAEVFSVNFAESEEAKKVINDFVEKGTQGKIVEAVKKLDQDTVFALANYILFKGKWKKPFDPENTEEAEFHVDESTTVKVPMMTLSGMLDVHHCSTLSSWVLLMDYAGNATAVFLLPDDGKMQHLEQTLSKELISKFLLNRRRRLAQIHFPRLSISGEYNLKTLMSPLGITRIFNNGADLSGITEENAPLKLSQAVHKAVLTIDETGTEAAAVTVLLAVPYSMPPILRFDHPFLFIIFEEHTQSPLFVGKVVDPTH
B4: AAT 1-2: murine α-1-antitrypsin protein corresponding to one of the Serpina1 genes (A-E) (protein, UniProt P22599 25-413, looked up)
Alpha-1-antitrypsin 1-2: EDVQETDTSQKDQSPASHEIATNLGDFAISLYRELVHQSNTSNIFFSPVSIATAFAMLSLGSKGDTHTQILEGLQFNLTQTSEADIHKSFQHLLQTLNRPDSELQLSTGNGLFVNNDLKLVEKFLEEAKNHYQAEVFSVNFAESEEAKKVINDFVEKGTQGKIVEAVKELDQDTVFALANYILFKGKWKKPFDPENTEEAEFHVDKSTTVKVPMMMLSGMLDVHHCSILSSWVLLMDYAGNASAVFLLPEDGKMQHLEQTLNKELISKILLNRRRRLVQIHIPRLSISGDYNLKTLMSPLGITRIFNNGADLSGITEENAPLKLSKAVHKAVLTIDETGTEAAAATVFEAVPMSMPPILRFDHPFLFIIFEEHTQSPIFVGKVVDPTHK

system: not listed separately; test: Respiratory phenotype in response to intratracheal PPE; assay type: in vivo, mice; details: intratracheal dose of 0.33 IU; FIG. 7
Description: FIG. 7. Respiratory phenotype in response to a low and high dose of PPE.

Row | Molecule | respiratory phenotype
1 | PPE: porcine pancreatic elastase | a stronger phenotype is induced

biological target: T1, neutrophil elastase; test: not given; details: murine AAT protein, C57BL/6J; cited from earlier work

Row | Molecule | inhibition of neutrophil elastase
2 | B1 | inhibit
3 | B2 | do not
4 | B3 | do not
5 | B4 | inhibit

biological target: pancreatic elastase (Sus scrofa, UniProt P00772); test: not given; details: murine AAT protein, C57BL/6J; cited from earlier work
Sequence (P00772 27-266): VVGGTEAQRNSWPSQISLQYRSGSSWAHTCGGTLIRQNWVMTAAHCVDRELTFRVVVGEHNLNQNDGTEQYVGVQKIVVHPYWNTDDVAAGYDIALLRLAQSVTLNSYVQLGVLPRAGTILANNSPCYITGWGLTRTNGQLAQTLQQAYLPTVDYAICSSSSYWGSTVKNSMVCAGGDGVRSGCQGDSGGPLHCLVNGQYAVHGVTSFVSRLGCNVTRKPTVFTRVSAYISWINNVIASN

Row | Molecule | inhibition of pancreatic elastase
6 | B1 | inhibit
7 | B2 | do not
8 | B3 | do not
9 | B4 | inhibit

Reference: patent US10822618B2, “Method of using a transgenic mouse with alpha-one antitrypsin (ATT) deficiency to screen compounds” (University of Massachusetts, priority 2016, dated 2020)
